We go through eight molecules from US20050182242A1, “Global analysis of protein activities using proteome chips” (priority 2001, published 2005).

One data set concerns total yeast genomic DNA. Nature of the data set: Yeast proteome chip probed with labeled genomic DNA. The data set is classed as binding. The settings on record: Cy3-labeled genomic DNA, visual inspection. The text has this: Protein-DNA and protein-RNA interactions are important for many fundamental biological functions such as transcription regulation, chromosome segregation and maintenance, and RNA transport and processing (Williamson, 2000, Nat. Struct. Biol. 7(10):834-7). To explore the possibility of using a proteome chip to identify proteins that bind to DNA or RNA molecules, total yeast genomic DNA was labeled using Cy3-CTP and Klenow fragment, and polyA^+ was labeled using a biotinylated psoralen-derivative (31). Each probe was incubated with a different proteome chip (FIG. 3A).
The protein-nucleic acid interaction was assayed as follows. The nucleic acid robes were labeled as described by Winzeler et al. (1999, Science 285:901). Blocked proteome chips were washed three to five times in PBS buffer, and the extra liquid on the glass surface was removed by tapping the slides vertically on a KIMWIPE™. 200 μl of labeled nuclei acid probe ([…] poly(dC/dG); 100-300 mM NaCl; 50-300 mM HEPES, pH 7.0-8.5; 10 mM MgCl2) was added to the proteome chip and immediately covered by a hydrophobic plastic cover slip (GRACE BIO-LABS™, USA). After trapped air bubbles were removed, the chip was incubated in a humidity chamber in the dark at room temperature (“RT”) for one hour. To remove the cover slip, the chip was immersed into large volume of PBS buffer(>50 ml), so that the slip would float away. The chip was then moved to a second PBS bath (>50 ml) and washed 3×5 min with shaking in the dark at RT. To completely remove the liquid on the chip, the chip was spun to dryness at 1500-2000 rpm for 5-10 min at RT.

The subject of data set [1] is phosphatidylcholine (PC) liposomes. Description: Yeast proteome chip probed with PC liposomes. Conditions: liposome binding signal on yeast proteome chip, Cy3-streptavidin detection. The essentials:
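Binding of arrayed yeast proteins to sonicated PC liposomes, with or without 5% (w/w) phosphoinositide, is scored by streptavidin fluorescence on the biotinylated lipid tracer.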

A further data set has as its system PI(3,4,5)P3 liposomes. Nature of the data set: Yeast proteome chip probed with PI(3,4,5)P3 liposomes. Conditions: liposome binding signal on yeast proteome chip, Cy3-streptavidin detection.
A further data set concerns PI(3,4)P2 liposomes. Description: Yeast proteome chip probed with PI(3,4)P2 liposomes. The settings on record: liposome binding signal on yeast proteome chip, Cy3-streptavidin detection.
Another data set concerns PI(3)P liposomes. Description: Yeast proteome chip probed with PI(3)P liposomes. Conditions: liposome binding signal on yeast proteome chip, Cy3-streptavidin detection.
A further data set concerns PI(4,5)P2 liposomes. Description: Yeast proteome chip probed with PI(4,5)P2 liposomes. Conditions: liposome binding signal on yeast proteome chip, Cy3-streptavidin detection.
For the next data set, the system named is PI(4)P liposomes. Nature of the data set: Yeast proteome chip probed with PI(4)P liposomes. Conditions: liposome binding signal on yeast proteome chip, Cy3-streptavidin detection.

B1: Cdc1p: yeast DNA-repair protein (protein, UniProt P40986 1-491, looked up)
Cell division control protein …: MVYRNRSKSVLSTHSKKSDDKAHYKSRSKKKSKSRSKKRLRIYWRYISIVWILWLGLISYYESVVVKRAMKKCQWSTWEDWPEGAESHRVGLFADPQIMDEYSYPGRPQIVNYFTRVIVDHYHRRNWKYVQYYLDPDSNFFLGDLFDGGRNWDDKQWIKEYTRFNQIFPKKPLRRTVMSLPGNHDIGFGDTVVESSLQRFSSYFGETSSSLDAGNHTFVLLDTISLSDKTNPNVSRVPRQFLDNFAMGSHPLPRILLTHVPLWRDPEQQTCGQLRESKEPFPIQKGHQYQTVIENDISQEILTKIQPEILFSGDDHDHCQISHSYPFQGKTKNAQEITVKSCAMNMGISRPAIQLLSLYNPSDLTMVNAGGEYASKTYQTELCYMPDPYKAIRMYLWGLLFSAAFIAYMHFFPKSFNNRVATIMNRVFTRPDGNTSDLPLPTSISKSKSKKSLTHSKYAVNDTRSIKQFLVNAIVLFVSVMPIFIYFYTVV
Take B1: the “binding of genomic DNA probe” value in the data set on total yeast genomic DNA was “identified”.

B2: TFB3: yeast GST-HisX6 fusion protein on proteome chip (protein, UniProt Q03290 1-321, looked up)
RNA polymerase II …: MLMDEYEENKDMCPICKTDRYLSPDVKFLVNPECYHRICESCVDRIFSLGPAQCPYKGCDKILRKNKFKTQIFDDVEVEKEVDIRKRVFNVFNKTIDDFNGDLVEYNKYLEEVEDIIYKLDHGIDVAKTEEKLRTYEELNKQLIMNNLERSRTEIESFEQRQKFEKEMKLKKRLLERQIEEEERMNKEWTKKEIVNRLSTTTQDINETIEGVKNTVKLKKSSARRKLEELNRVLKNNPYFNSNVNVQNSRLKDAVPFTPFNGDREAHPRFTLKGSVYNDPFIKDLEHRKEFIASGFNTNYAYERVLTEAFMGLGCVISEEL
modifications: GST-His6 tag
notes: yeast GST-HisX6 fusion protein on proteome chip
B2 came in with a PC in data set [1] of 37.86. In addition, the “PI(3, 4, 5)P3” value with PI(3,4,5)P3 liposomes came out at 27.45. Further, the “PI(3, 4)P2” value with PI(3,4)P2 liposomes stood at 47.72. Further, in the data set with PI(3)P liposomes, the “PI(3)P” value was 71.00. The “PI(4, 5)P2” value in the data set with PI(4,5)P2 liposomes is listed as 37.23. Also, the “PI(4)P” value in the data set on PI(4)P liposomes is recorded as 43.98.

B3: Rad51p: yeast DNA-repair protein (protein, UniProt P25454 1-400, looked up)
DNA repair protein RAD51: MSQVQEQHISESQLQYGNGSLMSTVPADLSQSVVDGNGNGSSEDIEATNGSGDGGGLQEQAEAQGEMEDEAYDEAALGSFVPIEKLQVNGITMADVKKLRESGLHTAEAVAYAPRKDLLEIKGISEAKADKLLNEAARLVPMGFVTAADFHMRRSELICLTTGSKNLDTLLGGGVETGSITELFGEFRTGKSQLCHTLAVTCQIPLDIGGGEGKCLYIDTEGTFRPVRLVSIAQRFGLDPDDALNNVAYARAYNADHQLRLLDAAAQMMSESRFSLIVVDSVMALYRTDFSGRGELSARQMHLAKFMRALQRLADQFGVAVVVTNQVVAQVDGGMAFNPDPKKPIGGNIMAHSSTTRLGFKKGKGCQRLCKVVDSPCLPEAECVFAIYEDGVGDPREEDE
On to B3, for which the “binding of genomic DNA probe” value in the data set on total yeast genomic DNA was “identified”.

B4: xrs2p: yeast DNA-repair protein (protein, UniProt P33301 1-854, looked up)
DNA repair protein XRS2: MWVVRYQNTLEDGSISFISCCLQAFKTYSIGRSSKNPLIIKNDKSISRQHITFKWEINNSSDLKHSSLCLVNKGKLTSLNKKFMKVGETFTINASDVLKSTIIELGTTPIRIEFEWINEVWNIPPHLTQFRTMLSEYGISTEISINDIPANLMISDYPKSEDNSIRELYALVSTIPMKKSRFLMELCNTLLPTSKTNLKFDEMWNDMISNPEYNVFDFDPNILLSKFMRLNNIRVLTTIKSEPRLSSLLRTFNINLFAFDNIDSLYKYVDSLEASTEYLILTTTDKKENGKILCTIKTMLTSIIDGTLSAVINMKGASSRTLDNGKFDQISEGMSTILKTSRAPEVEASPVVSKKRKLNRRRVLPLDSLDFFAGGLSTKTLSENRSLTDAKRLNCGAESKTVISSPNIAEADEKHAPFLQNALKPTEDIGKKSGHSSPGAIIVSSPNLGTVNTSEDSLDKSLQSHKLPQPSLPEVAGIGSQTISSNSADYETAAVNSMDDAEVTKNFRVNHHQNIEQPSKNIRKLSNYSREISSPLQENCKSPVKELSIKEKSGTPHAFVEAIQETKNREVKRVKSTIVELKDEELSEEAINQLKNLAIVEPSNNLLRKSFDSEGNKTSRTTEKWENSLMEPEWHKRKNFKTFVKVRPKSKAHKEEGKNNTQSSDFIRNAAFLITRNYVPLKKYSKKDTTTKWGTEENEDMFALTEMERFGSNTFMSDNINSNTIQKRSQALNRFTNEDSSNEGEEDSFSFSRCSGTAASVQPLKNKIFITDEDDLGDIDDKSDRLNHRENNRNLFVVKEMNLRPNLSEECSKQSRHSRSATSRSRGSFGASNNGDGDDDDDDGPKFTFKRRKG
B4: the “binding of genomic DNA probe” value in the data set on total yeast genomic DNA was “identified”.

B5: Trm2p: yeast protein involved in DNA repair and RNA processing/modification (protein, UniProt P33753 1-639, looked up)
tRNA …: MYEQFEFSFFFFENSDNKVKYKAHLISSIKRWSIITCMRCFWTVQKSIFKARFFACRNFVKKHNYKLISTMTGSTEMVPPTMKHTVDNKRLSSPLTDSGNRRTKKPKLRKYKAKKVETTSPMGVLEFEVNDLLKSQNLSREQVLNDVTSILNDKSSTDGPIVLQYHREVKNVKVLEITSNGNGLALIDNPVETEKKQVVIIPFGLPGDVVNIKVFKTHPYYVESDLLDVVEKSPMRRDDLIRDKYFGKSSGSQLEFLTYDDQLELKRKTIMNAYKFFAPRLVAEKLLPPFDTTVASPLQFGYRTKITPHFDMPKRKQKELSVRPPLGFGQKGRPQWRKDTLDIGGHGSILDIDECVLATEVLNKGLTNERRKFEQEFKNYKKGATILLRENTTILDPSKPTLEQLTEEASRDENGDISYVEVEDKKNNVRLAKTCVTNPRQIVTEYVDGYTFNFSAGEFFQNNNSILPIVTKYVRDNLQAPAKGDDNKTKFLVDAYCGSGLFSICSSKGVDKVIGVEISADSVSFAEKNAKANGVENCRFIVGKAEKLFESIDTPSENTSVILDPPRKGCDELFLKQLAAYNPAKIIYISCNVHSQARDVEYFLKETENGSAHQIESIRGFDFFPQTHHVESVCIMKRI
B5: the “binding of genomic DNA probe” value in the data set on total yeast genomic DNA is on record as “identified”.

B6: PCL6: yeast GST-HisX6 fusion protein on proteome chip (protein, UniProt P40038 1-420, looked up)
PHO85 cyclin-6: MSIKGDSPSSTNASSSPKSTYSIQSDDKANLGSGNVDIRTDNSQQDSNNRRDIVVVTRVASEETLESQSSTSSMGIRPESSFNYEDASNQARVEMNNRVHGSNMNTINKYYPVRFPKNNERQLSDTNNLNEKVQGTHTVQSSTQEDKILDGDTSNSQVTPSLNIAEFPTDKLLKMLTALLTKIIKSNDRTAATNPSLTQEIENGRCLALSDNEKKYLSPVLGFRGKHVPQIGLDQYFQRIQKYCPTTNDVFLSLLVYFDRISKRCNSVTTTPKTNTAKHESPSNESSLDKANRGADKMSACNSNENNENDDSDDENTGVQRDSRAHPQMFVMDSHNIHRLIIAGITVSTKFLSDFFYSNSRYSRVGGISLQELNHLELQFLVLCDFELLISVNELQRYADLLYRFWNNAKAQSQALVTGM
modifications: GST-His6 fusion tag
notes: as for B2
In turn, B6 had a PC in data set [1] of 31.70. In addition, the “PI(3, 4, 5)P3” value with PI(3,4,5)P3 liposomes stood at 26.89. Besides, the “PI(3, 4)P2” value in the data set with PI(3,4)P2 liposomes was 26.84. Further, in the data set on PI(3)P liposomes, the “PI(3)P” value was 9.00. In addition, the “PI(4, 5)P2” value in the data set on PI(4,5)P2 liposomes turned out to be 3.70. Besides, in the data set with PI(4)P liposomes, the “PI(4)P” value was 8.06.

B7: Spt2p: transcription factor, negative regulator of HO gene transcription (protein, UniProt P06843 2-333, looked up)
Protein SPT2: SFLSKLSQIRKSTTASKAQVQDPLPKKNDEEYSLLPKNYIRDEDPAVKRLKELRRQELLKNGALAKKSGVKRKRGTSSGSEKKKIERNDDDEGGLGIRFKRSIGASHAPLKPVVRKKPEPIKKMSFEELMKQAENNEKQPPKVKSSEPVTKERPHFNKPGFKSSKRPQKKASPGATLRGVSSGGNSIKSSDSPKPVKLNLPTNGFAQPNRRLKEKLESRKQKSRYQDDYDEEDNDMDDFIEDDEDEGYHSKSKHSNGPGYDRDEIWAMFNRGKKRSEYDYDELEDDDMEANEMEILEEEEMARKMARLEDKREEAWLKKHEEEKRRRKKGIR
Regarding B7, the “binding of genomic DNA probe” value in the data set with total yeast genomic DNA is “identified”.

B8: Met30p: yeast protein with five WD-repeats that binds certain promoter regions (protein, UniProt P39014 1-640, looked up)
F-box protein MET30: MRRERQRMMSFEDKDKDDLDNSNSNNSSEMTDTAMMPPLKRLLITGSSDDLAQGSSGKKKMTMATRSPSSSPDLATNDSGTRVQPLPEYNFTKFCYRHNPDIQFSPTHTACYKQDLKRTQEINANIAKLPLQEQSDIHHIISKYSNSNDKIRKLILDGILSTSCFPQLSYISSLVTHMIKIDFISILPQELSLKILSYLDCQSLCNATRVCRKWQKLADDDRVWYHMCEQHIDRKCPNCGWGLPLLHMKRARIQQNSTGSSSNADIQTQTTRPWKVIYRERFKVESNWRKGHCRIQEFKGHMDGVLTLQFNYRLLFTGSYDSTIGIWDLFTGKLIRRLSGHSDGVKTLYFDDRKLITGSLDKTIRVWNYITGECISTYRGHSDSVLSVDSYQKVIVSGSADKTVKVWHVESRTCYTLRGHTEWVNCVKLHPKSFSCFSCSDDTTIRMWDIRTNSCLKVFRGHVGQVQKIIPLTIKDVENLATDNTSDGSSPQDDPTMTDGADESDTPSNEQETVLDENIPYPTHLLSCGLDNTIKLWDVKTGKCIRTQFGHVEGVWDIAADNFRIISGSHDGSIKVWDLQSGKCMHTFNGRRLQRETQHTQTQSLGDKVAPIACVCIGDSECFSGDEFGCVKMYKFDLND
As for B8, in the data set with total yeast genomic DNA, the “binding of genomic DNA probe” value is on record as “identified”.
